Assay [1] addresses T1, MAGE-A6 peptide on HLA-DPB1*04:01 (human).
T1 peptide: QYFVQENYLEY
The assay is described as follows: cytokine release.

For assay [2], the target named is T2, MAGE-A2/A12 peptide on HLA-DPB1*04:01 (human).
T2 peptide: QDLVQENYLEY
The assay is described as follows: cytokine release.

The target in assay [3] is T3, MAGE-A4/A9 peptide on HLA-DPB1*04:01 (human).
T3 peptide: QDWVQENYLEY
Briefly: cytokine release.

The target in assay [4] is T4, MAGE-A8 peptide on HLA-DPB1*04:01 (human).
T4 peptide: QEWVQENYLEY
Briefly: cytokine release.

Assay [5] has as its target T5, MAGE-B2 peptide on HLA-DPB1*04:01 (human).
T5 peptide: KDLVQEKYLEY
Briefly: cytokine release.

The target of assay [6] is T6, MAGE-B10 peptide on HLA-DPB1*04:01 (human).
T6 peptide: KDLVKENYLEY
Briefly: cytokine release.

Assay [7] concerns the target T7, MAGE-B16 peptide on HLA-DPB1*04:01 (human).
T7 peptide: KDFVKEKYLEY
Briefly: cytokine release.

Assay [8] concerns the target T8, MAGE-C1 peptide on HLA-DPB1*04:01 (human).
T8 peptide: KVWVQEHYLEY
The assay is described as follows: cytokine release.

The target in assay [9] is T9, MAGE-A3 peptide on HLA-DPB1*04:01 (human).
T9 peptide: QHFVQENYLEY
Briefly: cytokine release.

The target in assay [10] is T10, MAGE-L2 peptide on HLA-DPB1*04:01 (human).
T10 peptide: KKLITEVFVRQKYLEY
The assay is described as follows: cytokine release.

For assay [11], the target named is T11, MAGE-G1 peptide on HLA-DPB1*04:01 (human).
T11 peptide: KKLITEDFVRQRYLEY
The assay is described as follows: cytokine release.

Assay [12] has as its target T12, Necdin peptide on HLA-DPB1*04:01 (human).
T12 peptide: EEFVQMNYLKY
Briefly: cytokine release.

Assay [13] concerns the target T13, MAGE-A12 peptide on HLA-DPB1*04:01 (human).
T13 peptide: KKLLTQDLVQENYLEY
Briefly: cytokine release.

The target of assay [14] is T14, MAGE-A1 peptide on HLA-DPB1*04:01 (human).
T14 peptide: KKLLTQDLVQEKYLEY
The assay is described as follows: cytokine release.

The target of assay [15] is T15, MAGE-A3 peptide on HLA-DPB1*04:02 (human).
T15 peptide: QHFVQENYLEY
The assay is described as follows: cytokine release.

In assay [16] the target is T16, MAGE-A3 peptide on HLA-DPB1*04:01 (human).
T16 peptide: KKLLTQHFVQEN
Briefly: cytokine release.

For assay [17], the target named is T17, MAGE-A3 peptide on HLA-DPB1*04:01 (human).
T17 peptide: KKLLTQHFVQE
Briefly: cytokine release.

For assay [18], the target named is T18, MAGE-A3 peptide on HLA-DPB1*04:01 (human).
T18 peptide: LLTQHFVQENYLEY
Briefly: cytokine release.

The target in assay [19] is T19, MAGE-A3 peptide on HLA-DPB1*04:01 (human).
T19 peptide: LTQHFVQENYLEY
Briefly: cytokine release.

The target in assay [20] is T20, MAGE-A3 peptide on HLA-DPB1*04:01 (human).
T20 peptide: TQHFVQENYLEY
The assay is described as follows: cytokine release.

Assay [21] has as its target T21, MAGE-A3 peptide on HLA-DPB1*04:01 (human).
T21 peptide: KKLLTQHFVQENYLEY
The assay is described as follows: multimer staining.

Assay [22] has as its target T21, MAGE-A3 peptide on HLA-DPB1*04:01. Briefly: cytokine release.

The text below walks through data of patent publication US20150246959A1 (published 2015).

B1: 6F9 TCR (TCR, V domains shown)
Valpha: AQTVTQSQPEMSVQEAETVTLSCTYDTSESDYYLFWYKQPPSRQMILVIRQEAYKQQNATENRFSVNFQKAAKSFSLKISDSQLGDAAMYFCALRSSGTYKYIFGTGTRLKVLA
Vbeta: GAGVSQSPSNKVTEKGKDVELRCDPISGHTALYWYRQSLGQGLEFLIYFQGNSAPDKSGLPSDRFSAERTGGSVSTLTIQRTQQEDSAVYLCASIRTGPFFSGNTIYFGEGSWLTVV
For the molecule B1, the binding result in assay [1] is reported as “recognises”; in assay [2], “no recognition”; in assay [3] it was “no recognition”; in assay [4], “no recognition”; in assay [5], “no recognition”; in [6], “no recognition”. Also, the binding result in assay [7] was “no recognition”; in assay [8] it was “no recognition”; in [9], “recognises”; in assay [10], “no recognition”; in assay [11], “no recognition”; in assay [12], “no recognition”. Moreover, the binding result in assay [13] is reported as “no recognition”; in assay [14], “no recognition”; in [15], “recognises”; in assay [16], “no recognition”; in assay [17], “no recognition”; in assay [18] it was “recognises”. In addition, the binding result in assay [19], in assay [20] and in assay [21] was “recognises” throughout.

B2: R12C9 TCR (TCR, V domains shown)
Valpha: AQTVTQSQPEMSVQEAETVTLSCTYDTSESDYYLFWYKQPPSRQMILVIRQEAYKQQNATENRFSVNFQKAAKSFSLKISDSQLGDAAMYFCAYTVPSNAGGTSYGKLTFGQGTILTVHP
Vbeta: EPEVTQTPSHQVTQMGQEVILRCVPISNHLYFYWYRQILGQKVEFLVSFYNNEISEKSEIFDDQFSVERPDGSNFTLKIRSTKLEDSAMYFCASSERGQGYGYTFGSGTRLTVV
Regarding B2, the values for the binding result in assay [22], in assay [13] and in assay [14] were “recognises”, “no recognition” and “no recognition”, respectively.
